Substitutions are numbered along the chain they refer to. Names and notes keep the numbering of the source.
T1: human IL-2Rβ (human, UniProt P14784 27-240, limits assumed)
T1 construct: also called hIL-2Rβ; IL-2 receptor beta
T1 sequence (looked up): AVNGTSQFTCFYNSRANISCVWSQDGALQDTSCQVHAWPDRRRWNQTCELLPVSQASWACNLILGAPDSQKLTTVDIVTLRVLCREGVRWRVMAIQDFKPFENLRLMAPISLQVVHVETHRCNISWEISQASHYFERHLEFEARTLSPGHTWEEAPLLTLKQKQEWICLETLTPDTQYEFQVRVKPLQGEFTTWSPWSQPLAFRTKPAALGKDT

B1: hIL-15 V49R/D30A (ligand)
chain: NWVNVISDLKKIEDLIQSMHIDATLYTESAVHPSCKVTAMKCFLLELQRISLESGDASIHDTVENLIILANNSLSSNGNVTESGCKECEELEEKNIKEFLQSFVHIVQMFINTGGGGSGHHHHHHHHGGGLNDIFEAQKIEWHE
B2: hIL-15 V49R/D30F (ligand)
chain: B1 chain with A30F
B3: hIL-15 V49R/D30E (ligand)
chain: B1 chain with A30E
B4: hIL-15 V49R/L69Y (ligand)
chain: B1 chain with A30D, L69Y
B5: hIL-15 V49R/I68W (ligand)
chain: B1 chain with A30D, I68W
B6: hIL-15 V49R/L69Q (ligand)
chain: B1 chain with A30D, L69Q
B7: hIL-15 V49R/I68Q (ligand)
chain: B1 chain with A30D, I68Q
B8: hIL-15 V49R/L69R (ligand)
chain: B1 chain with A30D, L69R
B9: hIL-15 V49R/N4R (ligand)
chain: B1 chain with N4R, A30D
B10: hIL-15 V49R/L69H (ligand)
chain: B1 chain with A30D, L69H
B11: hIL-15 V49R/S7P (ligand)
chain: B1 chain with S7P, A30D
B12: hIL-15 V49R/N4P (ligand)
chain: B1 chain with N4P, A30D
B13: hIL-15 V49R/D30H (ligand)
chain: B1 chain with A30H
B14: hIL-15 V49R/L69F (ligand)
chain: B1 chain with A30D, L69F
B15: hIL-15 V49R/I68E (ligand)
chain: B1 chain with A30D, I68E
B16: hIL-15 V49R/I68G (ligand)
chain: B1 chain with A30D, I68G
B17: hIL-15 V49R/L69N (ligand)
chain: B1 chain with A30D, L69N
B18: hIL-15 V49R/N4T (ligand)
chain: B1 chain with N4T, A30D
B19: hIL-15 V49R/K11F (ligand)
chain: B1 chain with K11F, A30D
B20: hIL-15 V49R/H32T (ligand)
chain: B1 chain with A30D, H32T
B21: hIL-15 V49R/K11M (ligand)
chain: B1 chain with K11M, A30D
B22: hIL-15 V49R/D30W (ligand)
chain: B1 chain with A30W
B23: hIL-15 V49R/H32W (ligand)
chain: B1 chain with A30D, H32W
B24: hIL-15 V49R/N4F (ligand)
chain: B1 chain with N4F, A30D

Target: T2, human IL-15Rα (human, UniProt Q13261 31-205, limits assumed)
T2 construct: also called hIL-15Rα; IL-15 receptor alpha
Assay: SPR, steady state

T2 sequence (Q13261 31-205 limits assumed): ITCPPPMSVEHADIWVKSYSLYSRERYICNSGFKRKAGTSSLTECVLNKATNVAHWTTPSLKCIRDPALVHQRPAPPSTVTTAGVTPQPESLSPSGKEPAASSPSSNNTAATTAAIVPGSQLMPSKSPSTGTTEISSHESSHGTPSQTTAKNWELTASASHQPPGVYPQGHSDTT

Kd | Binder
151 nM | B1
166 nM | B2
124 nM | B3
137 nM | B4
93.7 nM | B5
~43.3 nM | B6
132 nM | B7
111 nM | B8
56.1 nM | B9
54.5 nM | B10
> 500 nM | B11
356 nM | B12
121 nM | B13
106 nM | B14
122 nM | B15
101 nM | B16
44 nM | B17
~88.6 nM | B18

Target: T1, human IL-2Rβ
Assay: SPR, steady state

Kd | Binder
273 nM | B1
213 nM | B2
165 nM | B3
162 nM | B19
186 nM | B20
180 nM | B21
321 nM | B22
149 nM | B13
376 nM | B23
247 nM | B24
